Source: US20150246947A1 (BAXALTA, published 2015)
Where “and” joins values, the source holds several entries; their conditions need not be identical. Identical values can stand only once. Positions of bridges follow the written chain, without caps; N, C: chain ends. Non-standard residues stand in square brackets, D forms with d.

T1: human Protein S (UniProt P07225 42-676)
T1 chain: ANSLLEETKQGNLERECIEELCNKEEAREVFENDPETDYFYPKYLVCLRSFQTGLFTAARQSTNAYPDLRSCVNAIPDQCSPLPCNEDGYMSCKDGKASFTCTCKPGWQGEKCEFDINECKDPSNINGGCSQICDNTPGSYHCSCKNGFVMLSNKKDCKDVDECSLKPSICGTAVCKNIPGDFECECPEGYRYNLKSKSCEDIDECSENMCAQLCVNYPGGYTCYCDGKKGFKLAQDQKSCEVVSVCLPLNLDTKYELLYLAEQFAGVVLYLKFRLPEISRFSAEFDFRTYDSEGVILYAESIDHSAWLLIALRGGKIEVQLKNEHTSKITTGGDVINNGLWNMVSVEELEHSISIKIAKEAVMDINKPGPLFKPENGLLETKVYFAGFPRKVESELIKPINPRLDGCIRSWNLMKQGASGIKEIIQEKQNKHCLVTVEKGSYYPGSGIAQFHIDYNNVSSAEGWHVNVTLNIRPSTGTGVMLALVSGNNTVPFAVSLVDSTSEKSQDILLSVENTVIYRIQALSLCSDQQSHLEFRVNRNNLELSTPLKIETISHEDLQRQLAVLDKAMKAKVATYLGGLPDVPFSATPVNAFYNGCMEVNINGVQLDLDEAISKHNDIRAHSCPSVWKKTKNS

B1: JBS2734 (peptide)
chain: Ac-TGLVSAGWYDYN[dA]DHYREFT-NH2
SMILES: CC(=O)N[C@H](C(=O)NCC(=O)N[C@@H](CC(C)C)C(=O)N[C@H](C(=O)N[C@@H](CO)C(=O)N[C@@H](C)C(=O)NCC(=O)N[C@@H](Cc1c[nH]c2ccccc12)C(=O)N[C@@H](Cc1ccc(O)cc1)C(=O)N[C@@H](CC(=O)O)C(=O)N[C@@H](Cc1ccc(O)cc1)C(=O)N[C@@H](CC(N)=O)C(=O)N[C@H](C)C(=O)N[C@@H](CC(=O)O)C(=O)N[C@@H](Cc1c[nH]cn1)C(=O)N[C@@H](Cc1ccc(O)cc1)C(=O)N[C@@H](CCCNC(=N)N)C(=O)N[C@@H](CCC(=O)O)C(=O)N[C@@H](Cc1ccccc1)C(=O)N[C@H](C(N)=O)[C@@H](C)O)C(C)C)[C@@H](C)O
B2: JBS3162 (peptide)
chain: Ac-TCLVSAGWYDCYNFDHYREFT-NH2
modifications: disulfide 2-11
SMILES: CC(=O)N[C@H](C(=O)N[C@H]1CSSC[C@@H](C(=O)N[C@@H](Cc2ccc(O)cc2)C(=O)N[C@@H](CC(N)=O)C(=O)N[C@@H](Cc2ccccc2)C(=O)N[C@@H](CC(=O)O)C(=O)N[C@@H](Cc2c[nH]cn2)C(=O)N[C@@H](Cc2ccc(O)cc2)C(=O)N[C@@H](CCCNC(=N)N)C(=O)N[C@@H](CCC(=O)O)C(=O)N[C@@H](Cc2ccccc2)C(=O)N[C@H](C(N)=O)[C@@H](C)O)NC(=O)[C@H](CC(=O)O)NC(=O)[C@H](Cc2ccc(O)cc2)NC(=O)[C@H](Cc2c[nH]c3ccccc23)NC(=O)CNC(=O)[C@H](C)NC(=O)[C@H](CO)NC(=O)[C@H](C(C)C)NC(=O)[C@H](CC(C)C)NC1=O)[C@@H](C)O
B3: JBS3160 (peptide)
chain: Ac-CGLVSAGWYDYNFCDHYREFT-NH2
modifications: disulfide 1-14
SMILES: CC(=O)N[C@H]1CSSC[C@@H](C(=O)N[C@@H](CC(=O)O)C(=O)N[C@@H](Cc2c[nH]cn2)C(=O)N[C@@H](Cc2ccc(O)cc2)C(=O)N[C@@H](CCCNC(=N)N)C(=O)N[C@@H](CCC(=O)O)C(=O)N[C@@H](Cc2ccccc2)C(=O)N[C@H](C(N)=O)[C@@H](C)O)NC(=O)[C@H](Cc2ccccc2)NC(=O)[C@H](CC(N)=O)NC(=O)[C@H](Cc2ccc(O)cc2)NC(=O)[C@H](CC(=O)O)NC(=O)[C@H](Cc2ccc(O)cc2)NC(=O)[C@H](Cc2c[nH]c3ccccc23)NC(=O)CNC(=O)[C@H](C)NC(=O)[C@H](CO)NC(=O)[C@H](C(C)C)NC(=O)[C@H](CC(C)C)NC(=O)CNC1=O

Target: T1, human Protein S
Assay: LANCE competition
Method in brief: (§1)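 IC50 was derived by non-linear regression of the acceptor emission in a LANCE time-resolved FRET competition assay using europium-labelled Protein S, ULight-labelled streptavidin, a biotinylated tracer peptide and three-fold titrations of unlabelled test peptide. Reactions of 50 µl contained 10 nM Protein S, 100 nM streptavidin and 300 nM tracer at final concentration (2 nM Protein S and 60 nM tracer on a Tecan F500), were kept 1 hour at room temperature, and were read at Ex 340 nm, Em 665 nm.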
Ac-TFHVSAGWYDYNFDHYREFT-NH2 [JBS2611] was tested, and the IC50 was 12.5 nM. Ac-TGSVSAGWYDYNFDHYREFT-NH2 [JBS2650] was tested, and the IC50 was 25.1 nM. With Ac-GGHVSAGWYDYNADHYREFT-NH2 [JBS2684] the IC50 was 12.5 nM. In the case of Ac-FGHVSAGWYDYNFDHYREFT-NH2 [JBS2610], the IC50 is reported as 15.5 nM. Binder Ac-TAHVSAGWYDYNFDDYREFT-NH2 [JBS2679] has an IC50 of 30 nM. Work on Ac-TGHVSAGWYDYNSDHYREFT-NH2 [JBS2659] yielded an IC50 of 16.4 nM. Work on Ac-GGHVSAGWYDYNFDLYREFT-NH2 [JBS2682] yielded an IC50 of 7.5 nM. In the case of Ac-TGLVSAGWYDYNFDQYREFT-NH2 [JBS2847], the IC50 is reported as 5.4 nM. Work on Ac-TGHVSAGWYDYNFDHYRE-NH2 [JBS2678] yielded an IC50 of 1810 nM. In the case of TGLVSAGWYDYNFDHYREFTC [JBS2713], the IC50 is reported as 20.1 nM. Work on Ac-TGLVSAGWYDYNFDHYEEFT-NH2 [JBS2752] yielded an IC50 of 6.8 nM. Ac-TAHVSAGWYDYNFDLYREFT-NH2 [JBS2680] was tested, and the IC50 was 6 nM. For Ac-TGLVEAGWYDYNFDHYREFT-NH2 [JBS2740], the IC50 was 16.4 nM. For Ac-TGLVSAGWYDYNNDHYREFT-NH2 [JBS2825], the IC50 was 4.4 nM. With Ac-TGLVSAGWYDYNMDHYREFT-NH2 [JBS2806] the IC50 was 5.7 nM. With Ac-TGLVSAGWYDYNFDTYREFT-NH2 [JBS2885] the IC50 was 4.4 nM. For Ac-EGYVSAGWYDYNTDTYYEFE-NH2 [JBS3222], the IC50 was 1.5 nM. Binder Ac-TGLVSAGWYDYNFDVYREFT-NH2 [JBS2903] has an IC50 of 3.1 nM. B1 was tested, and the IC50 was 792 nM. For Ac-TGHVSAGWYDYNFDHYSEFT-NH2 [JBS2663], the IC50 was 28.4 nM. For Ac-MGLVSAGWYDYNFDHYREFT-NH2 [JBS2794], the IC50 was 4 nM and 5.6 nM. Ac-TGLVSAGWYDYNFDHYHEFT-NH2 [JBS2770] gave an IC50 of 5.2 nM. Ac-GAHVSAGWYDYNFDHYREFT-NH2 [JBS2681] gave an IC50 of 18.7 nM. Ac-TGLVSAGWYNYNFDHYREFT-NH2 [JBS2823] showed an IC50 of 13.5 nM. Work on Ac-PGHVSAGWYDYNFDHYREFT-NH2 [JBS2628] yielded an IC50 of 27 nM. Work on Ac-GAHVSAGWYDYNFDLYREFT-NH2 [JBS2683] yielded an IC50 of 5.6 nM. Ac-TGLVSAGWYDYNFDHYMEFT-NH2 [JBS2810] was tested, and the IC50 was 4.4 nM and 5.5 nM.

Target: T1, human Protein S
Assay: LANCE competition
Remark: another data set of the same source
Method in brief: as §1
Ac-EYYVSAGWYDYNADTYYEFE-NH2 [JBS3234] was tested, and the IC50 was 2.7 nM. Ac-EYYVSAGWYDYNDDKYYEFE-NH2 [JBS3217] showed an IC50 of 1.3 nM. Ac-EYYVSAGWYDTNNDRYYEFI-NH2 [JBS3239] was tested, and the IC50 was 2 nM. For Ac-EYYVSAGWYDYNNDIYYEFI-NH2 [JBS3240], the IC50 was 2 nM. With B2 the IC50 was 1510 nM. Ac-EYYVSAGWYDYNSDTYFEFI-NH2 [JBS3245] showed an IC50 of 2 nM. Ac-EYYVSAGWYDYNTDKYYEFI-NH2 [JBS3237] showed an IC50 of 1.5 nM. For CGLVSAGWYDYNFDCYREFT [JBS3172], the IC50 was 55.2 nM. In the case of CGLVSAGWYDYNCDHYREFT [JBS3170], the IC50 is reported as 206 nM. Ac-TGLVSAGWYDYNFDHYYEFT-NH2 [JBS2941] was tested, and the IC50 was 1.4 nM. In the case of B3, the IC50 is reported as 981 nM. With Ac-EYYVSAGWYDYNNDIYLEFE-NH2 [JBS3241] the IC50 was 1.2 nM. For Ac-QYYVVAGWYDYNTDSYYEFD-NH2 [JBS3251], the IC50 was 0.6 nM. In the case of Ac-EYYVSAGWHDYNKDIYFEFF-NH2 [JBS3242], the IC50 is reported as 67.8 nM. CGLVSAGWYDCYNFDHYREFT [JBS3157] showed an IC50 of 812 nM. Ac-GLVSAGWYDYNFDHYREFT-NH2 [JBS3180] showed an IC50 of 9 nM. For Ac-EYYVSAGWYDYEHDTYLEFY-NH2 [JBS3246], the IC50 was 2.2 nM.
